# Reference: patent publication US7176293B1, “Compositions and methods to enhance sensitivity of cancer cells to mitotic stress” (The Wistar Institute of Anatomy and Biology, priority 1999, dated 2007)
# B1: wild-type Chfr: 664 amino acid human checkpoint protein with FHA and ring finger domains, SEQ ID NO: 2; HA-tagged when expressed in cells (protein, listed as Homo sapiens)
# chain: MERPEEGKQSPPPQPWGRLLRLGAEEGEPHVLLRKREWTIGRRRGCDLSFPSNKLVSGDHCRIVVDEKSGQVTLEDTSTSGTVINKLKVVKKQTCPLQTGDVIYLVYRKNEPEHNVAYLYESLSEKQGMTQESFEANKENVFHGTKDTSGAGAGRGADPRVPPSSPATQVCFEEPQPSTSTSDLFPTASASSTEPSPAGRERSSSCGSGGGGISPKGSGPSVASDEVSSFASALPDRKTASFSSLEPQDQEDLEPVKKKMRGDGDLDLNGQLLVAQPRRNAQTVHEDVRAAAGKPDKMEETLTCIICQDLLHDCVSLQPCMHTFCAACYSGWMERSSLCPTCRCPVERICKNHILNNLVEAYLIQHPDKSRSEEDVQSMDARNKITQDMLQPKVRRSFSDEEGSSEDLLELSDVDSESSDISQPYVVCRQCPEYRRQAAQPPHCPAPEGEPGAPQALGDAPSTSVSLTTAVQDYVCPLQGSHALCTCCFQPMPDRRAEREQDPRVAPQQCAVCLQPFCHLYWGCTRTGCYGCLAPFCELNLGDKCLDGVLNNNSYESDILKNYLATRGLTWKNMLTESLVALQRGVFLLSDYRVTGDTVLCYCCGLRSFRELTYQYRQNIPASELPVAVTSRPDCYWGRNCRTQVKAHHAMKFNHICEQTRFKN
# modifications: HA tag when expressed
# notes: HA-tagged when expressed in cells
# What was measured:
# Type in all cases: cell-based, human
# SAOS2 cells = assay: Mitotic index of transiently-transfected SAOS2 cells exposed to the TAXOL drug; details: SAOS2, TAXOL drug added 36 hours after transfection; 12, 14 and 16 hour timepoints
# Protocol: (§1) Stable transfectants were prepared by transfecting DLD1 or U20S cells with 5 μg pSV2-HAchfr or pSV2-HAchfr-M580, or 5 μg pSV2 vector without insert and 1 μg pSV7neo plasmid [Wieczorek et al., supra] using Fugene-6 transfection reagent (Roche). Stably transfected cells were selected with G418. For transient expression, DLD1 or U20S cells were transfected with 5 μg pSV2-HAchfr or pSV2-HAchfrM580 or pSV2 plasmid without insert and 2 μg of a plasmid expressing green fluorescent protein using Fugene-6. SAOS2 cells were transfected as described above, except that the plasmids expressing Chfr were cotransfected with a plasmid expressing green fluorescent protein (GFP).
# (§2) Cells were grown on 8-well culture slides coated with human fibronectin (Becton Dickinson) and were examined as either non-synchronized or synchronized cells. […] The slides were sealed with coverslips using Fluoromount-G (Upstate Biotechnology) and visualized with a fluorescence microscope (Leica). […]
# Chfr-ΔFHA, a Chfr protein with deletion of residues 2–142 encompassing the FHA domain, was identified as a dominant negative mutant by studying its function in DLD 1 cells. […] 36 hours later, mitotic stress was induced by exposure to the TAXOL™ drug and the mitotic index was determined 8 to 16 hours late. Protein levels were determined by immunoblotting with an antibody that recognizes the N-terminal HA tag of the expressed Chfr proteins. […]
# DLD1 cells [1] = assay: Entry into metaphase of synchronized DLD1-neo and DLD1-chfr cells under mitotic stress; details: synchronized DLD1-chfr vs DLD1-neo; drug added 12 hours after release from the G1-S block
# Protocol: All cancer cells were grown in DMEM supplemented with glutamine, penicillin, streptomycin and 10% fetal bovine serum (Life Sciences). Normal human epidermal keratinocytes and osteoblasts were grown in KGM2 and OGM media, respectively (Clonetics). The cells were examined either non-synchronized or synchronized. For synchronization, the cells were treated with 2 mM thymidine for 16 hours, then with 0.25 mM thymidine/deoxycytidine for 9 hours, and then with 0.5 μg/ml aphidicolin for 20–24 hours. The cells were washed three times with PBS between each step [Janss et al., 1998, Exp. Cell Res., 243:29–38]. To induce mitotic stress, synchronized or non-synchronized cells were exposed to 0.5 μg/ml nocodazole, 5 μM of the TAXOL™ drug or 0.5 μg/ml colcemid. Cells were grown on 8-well culture slides coated with human fibronectin (Becton Dickinson) and were examined as either non-synchronized or synchronized cells. […] The slides were sealed with coverslips using Fluoromount-G (Upstate Biotechnology) and visualized with a fluorescence microscope (Leica). […] Progression through the cell cycle was monitored by measuring the mitotic index and by flow cytometric analysis of the DNA content of the cells.
# DLD1 and U20S cells = assay: Mitotic index of stably transfected DLD1 and U20S cells in response to nocodazole
# Protocol: as §1, §2
# To determine whether Chfr accounted for the different response, DLD1 and U20S cells were prepared to stably express HA-tagged wild-type Chfr or Chfr with the […] substitution (M580) or just the neo selectable marker. […] Furthermore, the different effects of wild-type Chfr and Chfr-M580 could not be attributed to differences in protein expression, as determined by immunoblotting. […]
# DLD1 cells [2] = assay: Mitotic index of unsynchronized DLD1 cells stably expressing Chfr or Chfr-A325, exposed to nocodazole; details: stably transfected unsynchronized DLD1 cells
# Source text: To determine whether ubiquitin-protein ligase activity is required for checkpoint function, the Chfr mutant that substitutes Cys325 of the ring finger with Ala was stably-expressed in DLD1 cells. These cells were then exposed to mitotic stress and examined for entry into metaphase. The mitotic index of unsynchronized DLD1 cells exposed to nocodazole is high, indicating the absence of a checkpoint that would delay entry into metaphase in response to mitotic stress.
molecule,measurement,setting,value
B1,effect on mitotic index compared to cells transfected with empty vector,SAOS2 cells,no effect
same,entry into metaphase in response to mitotic stress,DLD1 cells [1],delays entry into metaphase
same,mitotic index in response to nocodazole,DLD1 and U20S cells,low mitotic index
same,mitotic index after exposure to nocodazole,DLD1 cells [2],low mitotic index
